The values below come from paper doi:10.1101/2023.05.10.540081v1.

Substrate in this data set: O=[N+]([O-])c1ccc(O[C@@H]2O[C@H](CO)[C@@H](O)[C@H](O)[C@H]2O)cc1
The experiment in a line: purified protein. The note with it: technical triplicates.

The mark [1] stands for this setting: biological replicate a of two, low protein yield.

Changes are numbered by the printed parent chain. Names may count otherwise.

B1: β-glucosidase B (BglB) (Paenibacillus polymyxa) (protein)
chain: MSENTFIFPATFMWGTSTSSYQIEGGTDEGGRTPSIWDTFCQIPGKVIGGDCGDVACDHFHHFKEDVQLMKQLGFLHYRFSVAWPRIMPAAGIINEEGLLFYEHLLDEIELAGLIPMLTLYHWDLPQWIEDEGGWTQRETIQHFKTYASVIMDRFGERINWWNTINEPYCASILGYGTGEHAPGHENWREAFTAAHHILMCHGIASNLHKEKGLTGKIGITLNMEHVDAASERPEDVAAAIRRDGFINRWFAEPLFNGKYPEDMVEWYGTYLNGLDFVQPGDMELIQQPGDFLGINYYTRSIIRSTNDASLLQVEQVHMEEPVTDMGWEIHPESFYKLLTRIEKDFSKGLPILITENGAAMRDELVNGQIEDTGRHGYIEEHLKACHRFIEEGGQLKGYFVWSFLDNFEWAWGYSKRFGIVHINYETQERTPKQSALWFKQMMAKNGF
For B1, the Km stood at 4.38 mM and the kcat is 6.1433 s⁻¹.

B2: β-glucosidase B (BglB) (Paenibacillus polymyxa; V314D) (protein)
chain: B1 chain with V314D
For the protein B2, the Km worked out at 6.84 mM and the catalytic constant (kcat) was determined as 4.9167 s⁻¹.

B3: β-glucosidase B (BglB) (Paenibacillus polymyxa; M224K) (protein)
chain: B1 chain with M224K
In the case of B3, under setting [1], the Km came out at 7.54 mM and the kcat amounted to 1.695 s⁻¹.

B4: β-glucosidase B (BglB) (Paenibacillus polymyxa; Y169H) (protein)
chain: B1 chain with Y169H
As to B4, under “biological replicate a of two”, the Km worked out at 22.35 mM and the kcat turned out to be 9.8983 s⁻¹.

As usually defined, the Km is the substrate concentration at which the rate is half of its maximum. A word on the kcat: it is the maximal rate divided by the concentration of active sites.
